Measurements taken from patent US20230122364A1.

Biological target: prefusion conformation-stabilized SARS-CoV-2 spike ectodomain (S2Pecto) protein (SARS-CoV-2) (UniProt P0DTC2)
Experiment: ELISA on coated S2Pecto

Substance: rCR3022 (recombinant form of the cross-reactive SARS-CoV SRBD mAb CR3022) (antibody)
- EC50: 0.0102 µg/mL
